The source of these data is patent publication US20110039770A1 (PHARMAGAP, published 2011).

Read-outs that look alike come from different tables or passages of the source.

The target in experiment [1] is T1, PKC-ε, purified isoform (UniProt Q02156 1-737).
T1 construct: also called PKC-epsilon; epsilon
T1 sequence (looked up): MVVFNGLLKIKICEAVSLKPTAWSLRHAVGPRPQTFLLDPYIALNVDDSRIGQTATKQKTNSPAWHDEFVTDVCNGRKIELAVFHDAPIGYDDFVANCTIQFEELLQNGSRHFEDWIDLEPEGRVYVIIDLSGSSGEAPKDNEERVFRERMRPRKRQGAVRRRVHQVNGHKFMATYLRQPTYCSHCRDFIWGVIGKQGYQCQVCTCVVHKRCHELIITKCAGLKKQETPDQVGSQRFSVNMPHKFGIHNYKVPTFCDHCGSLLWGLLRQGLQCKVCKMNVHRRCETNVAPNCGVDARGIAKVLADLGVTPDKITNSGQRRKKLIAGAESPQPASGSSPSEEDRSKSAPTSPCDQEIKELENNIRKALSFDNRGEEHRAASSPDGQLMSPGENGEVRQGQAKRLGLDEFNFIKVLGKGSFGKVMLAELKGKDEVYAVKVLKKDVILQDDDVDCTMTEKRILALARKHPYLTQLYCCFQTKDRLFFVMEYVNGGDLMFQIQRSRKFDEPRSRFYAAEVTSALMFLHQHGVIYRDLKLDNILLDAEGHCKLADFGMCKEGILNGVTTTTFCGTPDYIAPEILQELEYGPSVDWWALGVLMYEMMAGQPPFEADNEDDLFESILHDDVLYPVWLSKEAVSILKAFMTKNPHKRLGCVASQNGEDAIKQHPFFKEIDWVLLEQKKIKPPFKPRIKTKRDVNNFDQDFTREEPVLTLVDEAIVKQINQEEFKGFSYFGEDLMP
The experiment can be described thus: competition ELISA on coated purified PKC-ε vs anti-PKC ε antibody; PRE 50 µM.

The target of experiment [2] is T1, PKC-ε, purified isoform. The experiment can be described thus: competition ELISA on coated purified PKC-ε vs anti-PKC ε antibody; PRE 100 µM.
Experiment [3] concerns the target T1, PKC-ε, purified isoform. The experiment can be described thus: competition ELISA on coated purified PKC-ε vs anti-PKC ε antibody; PRE 200 µM.
Experiment [4] deals with T2, PKC-ι in extracts of human cell lines (human, UniProt P41743 2-596).
T2 construct: Denatured on the Western blot membrane; also called PKC-iota (cell extract)
T2 sequence (looked up): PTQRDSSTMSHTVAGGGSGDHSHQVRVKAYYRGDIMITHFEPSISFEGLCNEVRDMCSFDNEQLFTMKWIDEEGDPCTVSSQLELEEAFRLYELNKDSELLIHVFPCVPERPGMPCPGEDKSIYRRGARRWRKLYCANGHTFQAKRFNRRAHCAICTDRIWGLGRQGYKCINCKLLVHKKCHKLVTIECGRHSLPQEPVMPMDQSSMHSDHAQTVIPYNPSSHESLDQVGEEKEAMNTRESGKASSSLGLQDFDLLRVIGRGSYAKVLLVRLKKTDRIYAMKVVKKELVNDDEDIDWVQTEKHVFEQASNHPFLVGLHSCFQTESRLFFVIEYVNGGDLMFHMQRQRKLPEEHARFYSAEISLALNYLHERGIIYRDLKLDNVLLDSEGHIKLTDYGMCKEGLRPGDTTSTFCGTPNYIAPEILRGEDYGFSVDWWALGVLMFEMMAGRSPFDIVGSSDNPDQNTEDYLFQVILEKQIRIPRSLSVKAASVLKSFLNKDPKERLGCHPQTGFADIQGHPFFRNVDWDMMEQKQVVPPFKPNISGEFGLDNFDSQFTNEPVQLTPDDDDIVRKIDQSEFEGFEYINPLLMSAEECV
The experiment can be described thus: Western-blot competition, cell extracts: PRE at 10X/20X the anti-PKC iota primary antibody concentration competes with that antibody; band densitometry (lower band = PRE bound).

In a further experiment the target is T3, PKC-βI, purified isoform (UniProt P05771-1 1-671).
T3 construct: also called PKC-beta I; beta 1
T3 sequence (P05771 whole entry, canonical isoform): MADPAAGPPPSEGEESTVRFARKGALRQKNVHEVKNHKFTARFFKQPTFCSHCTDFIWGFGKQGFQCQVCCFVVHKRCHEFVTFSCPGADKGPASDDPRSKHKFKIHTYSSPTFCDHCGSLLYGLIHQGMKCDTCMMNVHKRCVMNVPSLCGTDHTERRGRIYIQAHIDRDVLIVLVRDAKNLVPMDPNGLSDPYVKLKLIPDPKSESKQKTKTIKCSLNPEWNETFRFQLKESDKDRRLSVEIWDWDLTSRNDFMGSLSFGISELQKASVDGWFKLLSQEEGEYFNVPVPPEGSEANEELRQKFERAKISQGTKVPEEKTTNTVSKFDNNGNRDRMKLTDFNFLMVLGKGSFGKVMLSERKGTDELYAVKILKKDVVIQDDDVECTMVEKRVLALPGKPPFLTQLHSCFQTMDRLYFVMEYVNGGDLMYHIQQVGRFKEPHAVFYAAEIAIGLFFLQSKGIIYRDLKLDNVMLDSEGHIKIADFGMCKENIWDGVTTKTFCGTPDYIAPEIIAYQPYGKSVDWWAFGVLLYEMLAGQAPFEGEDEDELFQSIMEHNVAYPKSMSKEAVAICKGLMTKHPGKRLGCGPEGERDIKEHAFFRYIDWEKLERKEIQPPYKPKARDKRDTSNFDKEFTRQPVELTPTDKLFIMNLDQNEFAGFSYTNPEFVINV
The experiment can be described thus: purified isoform competition ELISA, summary grade.

Experiment [5] has as its target T4, PKC-βII, purified isoform (UniProt P05771-2 1-673).
T4 construct: also called PKC-beta II; beta 2
The experiment can be described thus: purified isoform competition ELISA, summary grade.

For experiment [6], the target named is T1, PKC-ε, purified isoform. The experiment can be described thus: purified isoform competition ELISA, summary grade.
Experiment [7] concerns the target T2, PKC-ι in extracts of human cell lines. The experiment can be described thus: Western-blot competition, cell extracts: PRE at 10X/20X the anti-PKC iota primary antibody concentration competes with that antibody; band densitometry (lower band = PRE bound). This is another data set of the same source.
Experiment [8] concerns the target T5, PKC-ζ in extracts of human cell lines (human, UniProt Q05513 1-592).
T5 construct: Denatured on the Western blot membrane; also called PKC-zeta (cell extract)
T5 sequence (looked up): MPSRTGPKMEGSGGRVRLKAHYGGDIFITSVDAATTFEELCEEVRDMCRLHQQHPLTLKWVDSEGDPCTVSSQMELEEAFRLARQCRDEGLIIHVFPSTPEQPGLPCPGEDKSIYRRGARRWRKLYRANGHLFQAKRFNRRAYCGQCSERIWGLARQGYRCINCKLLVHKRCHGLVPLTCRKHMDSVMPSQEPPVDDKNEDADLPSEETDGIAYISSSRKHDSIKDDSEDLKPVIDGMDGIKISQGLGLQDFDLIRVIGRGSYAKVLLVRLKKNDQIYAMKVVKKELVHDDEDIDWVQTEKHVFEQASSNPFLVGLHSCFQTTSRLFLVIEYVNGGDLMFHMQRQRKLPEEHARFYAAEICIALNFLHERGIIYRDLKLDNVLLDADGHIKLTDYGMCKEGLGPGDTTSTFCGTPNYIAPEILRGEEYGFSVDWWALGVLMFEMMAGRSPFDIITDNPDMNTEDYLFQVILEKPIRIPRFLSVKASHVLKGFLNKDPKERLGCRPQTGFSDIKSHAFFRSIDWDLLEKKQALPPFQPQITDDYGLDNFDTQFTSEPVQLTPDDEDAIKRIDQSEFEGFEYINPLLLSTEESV
The experiment can be described thus: Western-blot competition, cell extracts: PRE at 10X/20X the anti-PKC zeta primary antibody concentration competes with that antibody; band densitometry (lower band = PRE bound).

In experiment [9] the target is T6, PKC-βI in extracts of human cell lines (human, UniProt P05771-1 2-671).
T6 construct: Denatured on the Western blot membrane; beta I splice form; also called PKC-beta I (cell extract)
T6 sequence (P05771 2-671 limits assumed): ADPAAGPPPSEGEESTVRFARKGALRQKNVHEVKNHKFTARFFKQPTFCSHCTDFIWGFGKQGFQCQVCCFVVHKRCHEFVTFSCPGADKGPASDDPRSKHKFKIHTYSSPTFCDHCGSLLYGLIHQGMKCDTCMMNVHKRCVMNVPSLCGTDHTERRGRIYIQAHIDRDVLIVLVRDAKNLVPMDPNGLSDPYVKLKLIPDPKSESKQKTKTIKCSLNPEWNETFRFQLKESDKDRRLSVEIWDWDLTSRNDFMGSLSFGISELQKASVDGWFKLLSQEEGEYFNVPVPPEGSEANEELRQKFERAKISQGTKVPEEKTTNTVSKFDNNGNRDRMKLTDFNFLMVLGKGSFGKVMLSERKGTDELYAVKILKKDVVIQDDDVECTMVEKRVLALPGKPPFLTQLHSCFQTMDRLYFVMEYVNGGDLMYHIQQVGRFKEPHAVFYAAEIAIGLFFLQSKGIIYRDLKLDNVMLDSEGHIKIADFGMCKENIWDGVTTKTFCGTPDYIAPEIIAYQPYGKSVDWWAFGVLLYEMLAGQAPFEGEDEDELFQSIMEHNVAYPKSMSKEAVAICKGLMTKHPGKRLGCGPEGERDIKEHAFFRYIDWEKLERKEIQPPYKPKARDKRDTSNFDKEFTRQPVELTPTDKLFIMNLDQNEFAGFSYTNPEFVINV
The experiment can be described thus: Western-blot competition, cell extracts: PRE at 10X/20X the anti-PKC beta I primary antibody concentration competes with that antibody; band densitometry (lower band = PRE bound).

The target of experiment [10] is T7, PKC-ε in extracts of human cell lines (human, UniProt Q02156 1-737).
T7 construct: Denatured on the Western blot membrane; also called PKC-epsilon (cell extract)
T7 sequence (looked up): T1 sequence (looked up)
The experiment can be described thus: Western-blot competition, cell extracts: PRE at 10X/20X the anti-PKC epsilon primary antibody concentration competes with that antibody; band densitometry (lower band = PRE bound).

For experiment [11], the target named is T2, PKC-ι in extracts of human cell lines. The experiment can be described thus: Western-blot competition, cell extracts: PRE at 10X/20X the anti-PKC iota primary antibody concentration competes with that antibody; band densitometry (lower band = PRE bound). The source holds these as a separate data set.
For experiment [12], the target named is T5, PKC-ζ in extracts of human cell lines. The experiment can be described thus: Western-blot competition, cell extracts: PRE at 10X/20X the anti-PKC zeta primary antibody concentration competes with that antibody; band densitometry (lower band = PRE bound). The source holds these as a separate data set.
The target of experiment [13] is T2, PKC-ι in extracts of human cell lines. The experiment can be described thus: Western-blot competition, cell extracts: PRE at 10X/20X the anti-PKC iota primary antibody concentration competes with that antibody; band densitometry (lower band = PRE bound). The source holds these as a separate data set.
The target is the same in experiment [14]. Described as above. This is another data set of the same source.
Experiment [15] has as its target T5, PKC-ζ in extracts of human cell lines. The experiment can be described thus: Western-blot competition, cell extracts: PRE at 10X/20X the anti-PKC zeta primary antibody concentration competes with that antibody; band densitometry (lower band = PRE bound). The source holds these as a separate data set.
Experiment [16] concerns the target T2, PKC-ι in extracts of human cell lines. The experiment can be described thus: Western-blot competition, cell extracts: PRE at 10X/20X the anti-PKC iota primary antibody concentration competes with that antibody; band densitometry (lower band = PRE bound). The source holds these as a separate data set.
For experiment [17], the target named is T5, PKC-ζ in extracts of human cell lines. The experiment can be described thus: Western-blot competition, cell extracts: PRE at 10X/20X the anti-PKC zeta primary antibody concentration competes with that antibody; band densitometry (lower band = PRE bound). The source holds these as a separate data set.
Experiment [18] has the same target. Described as above. The source holds these as a separate data set.

T4 sequence (P05771 other isoform, or with tags, fused parts or gaps limits assumed): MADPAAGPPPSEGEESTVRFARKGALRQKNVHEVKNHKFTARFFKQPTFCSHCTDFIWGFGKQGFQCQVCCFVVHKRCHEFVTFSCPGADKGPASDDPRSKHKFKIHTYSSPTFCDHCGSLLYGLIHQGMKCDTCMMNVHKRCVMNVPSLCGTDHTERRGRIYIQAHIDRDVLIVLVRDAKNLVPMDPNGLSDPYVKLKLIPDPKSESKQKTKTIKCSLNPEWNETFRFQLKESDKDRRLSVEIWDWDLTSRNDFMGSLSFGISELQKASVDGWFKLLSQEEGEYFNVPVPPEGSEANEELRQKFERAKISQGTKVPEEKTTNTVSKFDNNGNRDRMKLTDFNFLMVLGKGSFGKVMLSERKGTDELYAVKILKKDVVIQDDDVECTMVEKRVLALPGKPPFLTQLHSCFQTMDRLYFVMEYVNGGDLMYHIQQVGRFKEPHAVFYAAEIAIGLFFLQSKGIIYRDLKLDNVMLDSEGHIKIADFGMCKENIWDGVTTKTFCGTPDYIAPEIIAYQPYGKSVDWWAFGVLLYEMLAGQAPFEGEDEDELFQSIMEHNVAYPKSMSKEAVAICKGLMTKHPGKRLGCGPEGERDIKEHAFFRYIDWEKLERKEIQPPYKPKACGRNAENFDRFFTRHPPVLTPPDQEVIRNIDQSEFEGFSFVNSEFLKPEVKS

B1: PRE 7 (peptide)
peptide: Ac-ISIGILQNADK-NH2
notes: also called peptide recognition element 7
For B1, the relative binding capacity with PKC-ε, purified isoform [1] came to 8.04%; with PKC-ε, purified isoform [2], 14%; in the experiment with PKC-ε, purified isoform [3] it was 3.78%. In [4], the binding result is “no binding (tested: 20X the primary antibody concentration)”.

B2: PRE 13 (peptide)
peptide: Ac-RDAQNLI-NH2
notes: Ac-RDAQNLI-NH2; also called peptide recognition element 13
For B2, the binding result with PKC-βI, purified isoform is “no binding”; in experiment [5] it was “no binding”; in the experiment with PKC-ε, purified isoform [6] it was “no binding”; in experiment [7], “no binding (tested: 20X the primary antibody concentration)”; in experiment [8], “no binding (tested: 20X the primary antibody concentration)”; in [9] it was “no binding (tested: 20X the primary antibody concentration)”. In addition, the binding result in [10] is “no binding (tested: 20X the primary antibody concentration)”. For the same molecule, the relative binding capacity with PKC-ε, purified isoform [1] is 0%; with PKC-ε, purified isoform [2] it was 0%; with PKC-ε, purified isoform [3], 0.85%.

B3: PRE 6 (peptide)
peptide: Ac-KDANQLIGISI-NH2
notes: also called peptide recognition element 6
Take B3: the binding result is on record as “no binding” in [5], “no binding (tested: 20X the primary antibody concentration)” in experiment [11] and “no binding (tested: 20X the primary antibody concentration)” in experiment [12].

B4: PRE 3 (peptide)
peptide: Ac-AKGIQEVKGGDAQNLIGISI-NH2
notes: also called peptide recognition element 3
Take B4: the relative binding capacity in the experiment with PKC-ε, purified isoform [1] was 34%; in the experiment with PKC-ε, purified isoform [2], 31.5%; with PKC-ε, purified isoform [3], 31%. In addition, in experiment [13], the binding result is on record as “binds”.

B5: PRE 4 (peptide)
peptide: Ac-KDAQNLIGISI-NH2
notes: also called peptide recognition element 4
As for B5, the binding result in [14] is “binds”.

B6: PRE 11 (peptide)
peptide: Ac-RDAQNLIGISI-NH2
notes: also called peptide recognition element 11
On to B6, for which the relative binding capacity was 2.25% with PKC-ε, purified isoform [1]; 13% with PKC-ε, purified isoform [2]; 9.84% in the experiment with PKC-ε, purified isoform [3]. The binding result in experiment [15] is recorded as “no binding (tested: 20X the primary antibody concentration)”.

B7: PRE 1 (peptide)
peptide: RRKKGGKDFVVKR
notes: also called peptide recognition element 1
In the case of B7, the values for the binding result in [5], in [16] and in experiment [17] were “no binding”, “no binding (tested: 20X the primary antibody concentration)” and “binds”, respectively.

B8: PRE 5 (peptide)
peptide: Ac-AKGIQEVKGGKDAQNLIGISI-NH2
notes: also called peptide recognition element 5
Turning to B8, the binding result in [18] is “binds”.
